Data on six molecules can be found in patent US20230405146A1 (HARBOUR ANTIBODIES, published 2023).

Ends that are not written are not given here.

B1: 3.2E3 (antibody, V domains shown)
VH: QVQLVESGGGVVQPGRSLRLSCVASGFTLSLNGMHWVRQAPGKGLEWVAVIWYDGSNRYYVDSVKGRFTISRDNSKNTLYLQMNSLRAEDTAVYYCARESFLGTFDYWGQGTLVTVSS
VL: DIQLTQSPSFLSASVGDRVTITCRASQGISSYLAWYQQKPGKAPKLLIYAASTLQSGVPSRFSGSGSGTEFTLTISSLQPEDFATYYCQQLNSYPYTFGQGTKLEIK
B2: 4.5c5 (antibody, V domains shown)
VH: EMQLLESGGGLVQPGGSLRLSCAASGFTFGHYAMTWVRQVPGKGLDWVSAISGGGTFTHYADSVKGRFTTSRDNSKNTLYLQMSSLRAEDTALYYCAKDQGYDYSWYYFDYWGQGTLVTVSS
VL: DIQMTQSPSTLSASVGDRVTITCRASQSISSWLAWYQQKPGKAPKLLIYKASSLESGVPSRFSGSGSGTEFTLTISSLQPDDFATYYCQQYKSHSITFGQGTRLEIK
notes: Anti-CD34 hybridoma clone from H2L2 mice
B3: 4.5 e5 (antibody, V domains shown)
VH: EMQLLESGGGLVQPGGSLRLSCAASGFTFGHYAMTWVRQVPGKGLDWVSAISGGGTFTHYADSVKGRFTTSRDNSKNTLYLQMSSLRAEDTALYYCAKDQGYDYSWYYFDYWGQGTLVTVSS
VL: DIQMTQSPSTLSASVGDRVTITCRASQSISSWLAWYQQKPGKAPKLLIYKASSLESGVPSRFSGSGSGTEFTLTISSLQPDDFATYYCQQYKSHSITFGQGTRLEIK
notes: as for B2
B4: L.1c7 (antibody, V domains shown)
VH: EMQLLESGGGLVQPGGSLRLSCAASGFTFGHFAMSWVRQVPGKGLDWVSAISGGGSFTYSADSVKGRFTTSRDNSKNTLYLQMSSLRAEDTALYYCAKDQGYDYSWYYFDFWGQGTLVTVSS
VL: DIQMTQSPSTLSASVGDRVTITCRASQSISSWLAWYQQRPGKAPKLLIYKASSLESGVPSRFSGRGSGTEFTLTISSLQPDDFATYYCQQYKSHSITFGQGTRLEIK
notes: as for B2
B5: 2.4c10 (antibody, V domains shown)
VH: QVQLVESGGGVVQPGRSLRLSCAASGFTFSNYGMHWVRQAPDKGLEWVAVIWYDGSKKYYADSVKGRFTISRDDSKNTLYLQMNSLRAEDTAVYYCARWGELRYDAFDIWGQGTMVTVSS
VL: not shown
notes: as for B2
B6: 2.6f11 (antibody, V domains shown)
VH: QVQLVESGGGVVQPGRSLRLSCAASGFTFSSYGMHWVRQAPGKGLEWVAVIWYDGSKKYYTDSVKGRFTISRDNSKNTLYLQMNSLRAEDTAVFYCARWGSGNFDSFDIWGQGTMVTVSS
VL: DIQMTQSPSTLSASVGDRVTITCRASQSISSWLAWYQQKPGKAPKLLISKASSLESGVPSRFSGSGSGTEFTLTISSLQPDDFATYYCQQYKNYWTFGQGTKVEIK
notes: as for B2

The target in the first assay is T1, human Gpr56 on cells (primary blood cells; 32D-Gpr56 cell line) (human, UniProt Q9Y653 26-693).
T1 construct: whole, on cells; In the nanoparticle assays the cells were gated or isolated by CD34, not by Gpr56
T1 sequence (Q9Y653 26-693): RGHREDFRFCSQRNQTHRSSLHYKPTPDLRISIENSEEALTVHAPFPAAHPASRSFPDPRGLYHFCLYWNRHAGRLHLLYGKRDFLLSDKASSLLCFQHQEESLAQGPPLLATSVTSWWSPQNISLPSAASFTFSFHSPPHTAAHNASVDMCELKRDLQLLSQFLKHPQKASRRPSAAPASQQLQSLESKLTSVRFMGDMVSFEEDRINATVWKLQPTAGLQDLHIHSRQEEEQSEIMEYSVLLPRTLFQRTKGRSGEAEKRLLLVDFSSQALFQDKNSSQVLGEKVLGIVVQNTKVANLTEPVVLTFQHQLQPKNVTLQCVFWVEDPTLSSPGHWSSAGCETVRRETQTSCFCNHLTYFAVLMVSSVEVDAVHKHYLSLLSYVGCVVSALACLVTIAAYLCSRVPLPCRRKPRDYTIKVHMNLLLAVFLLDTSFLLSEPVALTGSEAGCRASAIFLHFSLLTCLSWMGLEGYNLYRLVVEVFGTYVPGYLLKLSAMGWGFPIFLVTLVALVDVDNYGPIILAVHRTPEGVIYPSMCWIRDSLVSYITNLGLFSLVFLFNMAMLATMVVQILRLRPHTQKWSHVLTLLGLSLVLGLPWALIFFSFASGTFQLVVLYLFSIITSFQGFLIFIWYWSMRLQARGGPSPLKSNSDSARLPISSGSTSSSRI
The assay is described as follows: flow cytometry, 32D-Gpr56 cells, α-rat AF647 secondary; the dashed histogram is taken as the control.
With B1, the binding result is reported as “no binding (tested: 10 µg/ml)”.

The next assay has as its target T2, CD34 peptide (region 191 aa-207aa of the extracellular domain of CD34) coupled to BSA (human, also: coupled to BSA, site not given here).
T2 construct: also called CD34 specific peptide
T2 peptide: LEQNKTSSCAEFKKDRG
The experiment in a line: not stated: column headed Affinity, with no unit, method or antigen form printed; table of the CD34-peptide-positive monoclonals.
The molecule B2 came in with an Affinity of 1.3e-09.

Molecule B3 came in with an Affinity of 8.2e-10.

Take B4: the Affinity is 3.9e-09.

Molecule B5 displayed an Affinity of 3e-08.

On to B6, for which the Affinity was determined as 2.1e-09.
